Measured values from article PMC8318589, “Structure and analysis of nanobody binding to the human ASIC1a ion channel” (eLife, 2021).

Assays:
[1] = molecular target: T1, human ASIC1a-Flag (human) (UniProt P78348)
T1 sequence: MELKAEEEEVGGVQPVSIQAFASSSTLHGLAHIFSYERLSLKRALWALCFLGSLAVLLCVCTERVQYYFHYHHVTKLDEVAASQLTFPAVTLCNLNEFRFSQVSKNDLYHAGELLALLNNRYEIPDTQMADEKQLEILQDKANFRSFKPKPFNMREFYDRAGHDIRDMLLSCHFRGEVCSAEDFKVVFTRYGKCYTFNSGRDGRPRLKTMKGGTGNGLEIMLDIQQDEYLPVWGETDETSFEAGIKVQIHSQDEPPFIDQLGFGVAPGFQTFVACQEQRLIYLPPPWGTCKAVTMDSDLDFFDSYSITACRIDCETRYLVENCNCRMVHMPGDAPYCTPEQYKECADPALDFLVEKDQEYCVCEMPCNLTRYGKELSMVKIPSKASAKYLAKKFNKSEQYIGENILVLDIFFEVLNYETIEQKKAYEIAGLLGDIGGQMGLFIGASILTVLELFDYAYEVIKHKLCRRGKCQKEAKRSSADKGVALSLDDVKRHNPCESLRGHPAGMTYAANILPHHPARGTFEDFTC

[2] = molecular target: T2, hASIC1a comprising amino acids 12–478 with a Strep Tag II in the N-terminus (human, UniProt P78348-2)
[3] = molecular target: the molecule itself; assay: cryo-EM structure; hASIC1a-Nb.C1 complex in DDM, pH 7.4, 20 mM HEPES, 150 mM NaCl, 5 mM CaCl2, 3.8 mg/mL; C3 symmetry imposed
[4] = molecular target: T3, human ASIC1a-Flag (Homo sapiens, ASIC1a (528 aa isoform), UniProt P78348-2); assay: immunostaining of cells or tissue; transfected cells on coverslips incubated with Nb (1 nM, 1 hr, on ice) in the medium, washed, fixed, permeabilized; Nb detected by anti-HA, channel by anti-Flag; confocal microscopy; settings: one partner purified
T3 construct: human acid-sensing ion channel 1a (ASIC1a); this molecule is used for them; also called hASIC1a; hASIC1a-Flag; source: HEK293T / HEK-293 cells, transfected (pcDNA3.1), on cells

[5] = molecular target: T4, chicken ASIC1-Flag (Gallus gallus, ASIC1, UniProt Q1XA76); assay: as above; settings: one partner purified
T4 construct: chicken acid-sensing ion channel 1 (cASIC1); also called cASIC1; source: transfected cells, on cells

[6] = molecular target: T5, mouse ASIC1a-Flag (Mus musculus, ASIC1a, UniProt Q6NXK8-1); assay: as above; settings: one partner purified
T5 construct: mouse acid-sensing ion channel 1a (ASIC1a); also called mASIC1a; mASIC1; source: transfected cells, on cells

[7] = molecular target: T6, mouse ASIC2a-Flag (Mus musculus, ASIC2a (512 aa isoform), UniProt Q925H0-1); assay: as above; settings: one partner purified
T6 construct: mouse acid-sensing ion channel 2a (ASIC2a); also called mASIC2a; source: transfected cells, on cells
T6 sequence (Q925H0 whole entry, canonical isoform): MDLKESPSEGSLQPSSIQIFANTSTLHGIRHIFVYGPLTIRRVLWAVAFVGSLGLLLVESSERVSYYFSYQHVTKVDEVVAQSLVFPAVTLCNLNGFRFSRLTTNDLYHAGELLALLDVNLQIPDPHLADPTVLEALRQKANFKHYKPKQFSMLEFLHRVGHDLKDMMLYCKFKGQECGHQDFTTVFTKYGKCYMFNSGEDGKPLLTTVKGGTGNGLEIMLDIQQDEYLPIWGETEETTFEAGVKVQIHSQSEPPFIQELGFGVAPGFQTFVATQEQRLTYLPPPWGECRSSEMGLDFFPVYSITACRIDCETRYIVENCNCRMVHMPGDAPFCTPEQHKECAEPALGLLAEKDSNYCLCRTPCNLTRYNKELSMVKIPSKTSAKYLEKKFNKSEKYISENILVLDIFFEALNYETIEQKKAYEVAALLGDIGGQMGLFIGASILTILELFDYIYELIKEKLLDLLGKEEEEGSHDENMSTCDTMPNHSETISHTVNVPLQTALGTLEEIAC

[8] = molecular target: T7, mouse ASIC3-Flag (Mus musculus, ASIC3, UniProt Q6X1Y6); assay: as above; settings: one partner purified
T7 construct: mouse acid-sensing ion channel 3 (ASIC3); also called mASIC3; source: transfected cells, on cells
T7 sequence (Q6X1Y6 whole entry): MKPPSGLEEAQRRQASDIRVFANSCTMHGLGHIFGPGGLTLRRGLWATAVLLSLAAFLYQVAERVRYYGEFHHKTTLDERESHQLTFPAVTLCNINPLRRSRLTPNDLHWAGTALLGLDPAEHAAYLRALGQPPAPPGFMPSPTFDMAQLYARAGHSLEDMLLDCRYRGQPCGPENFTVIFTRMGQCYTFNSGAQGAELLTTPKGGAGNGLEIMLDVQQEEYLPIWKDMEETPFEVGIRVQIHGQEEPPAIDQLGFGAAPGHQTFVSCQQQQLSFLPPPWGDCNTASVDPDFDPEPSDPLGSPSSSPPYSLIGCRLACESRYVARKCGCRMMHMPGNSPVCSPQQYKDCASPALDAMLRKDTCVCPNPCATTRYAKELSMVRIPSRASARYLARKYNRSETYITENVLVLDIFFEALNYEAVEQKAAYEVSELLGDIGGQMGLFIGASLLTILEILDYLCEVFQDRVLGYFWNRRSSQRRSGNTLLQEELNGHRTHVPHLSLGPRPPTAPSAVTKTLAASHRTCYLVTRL

[9] = molecular target: T2, hASIC1a comprising amino acids 12–478 …; assay: SPR + immunostaining of cells or tissue; equilibrium constant worked out from the smallest kon of the SPR (purified, immobilised hASIC1a) and the upper limit of koff from the live-cell chase (hASIC1a on HEK293 cells); settings: one partner purified
[10] = molecular target: T2, hASIC1a comprising amino acids 12–478 …; assay: SEC; purified Nb.C1 added to crude membranes of 293 F cells expressing Strep-tagged hASIC1a (4°C, 3 hr) before solubilisation with 1% DDM; Strep Tactin XT affinity purification, then Superdex 200 Increase; peak run on Coomassie-stained SDS-PAGE; settings: one partner purified
[11] = molecular target: T3, human ASIC1a-Flag; assay: immunostaining of cells or tissue; chase: live HEK293 cells transfected with hASIC1a-Flag incubated with 10 nM Nb.C1-HA for 30 min at 18°C, washed, followed for 0-4 hr with a wash each hour, then fixed; Nb.C1 fluorescence normalised to time 0; koff estimated from the lack of decay; settings: one partner purified
[12] = molecular target: T2, hASIC1a comprising amino acids 12–478 …; assay: SPR; Biacore S200; hASIC1a amine-coupled to a CM5 chip (diluted in sodium acetate pH 5.0, 0.05% DDM); Nb.C1 injected at 0.41-100 nM, 30 µL/min; association 100 or 300 s, dissociation 300 or 3600 s; two protein preparations; global fits to association time courses; settings: both partners purified

## psalmotoxin-1 (PcTx1) (from UniProt P60514 1-40) (peptide)
[1]
  time constant of recovery of pH 6.0-induced currents after 60 s with 10 nM PcTx1, oocytes expressing hASIC1a (two-electrode voltage clamp): 220 s

B1: E9-3 (VHH)
VHH: QLQLVESGGDLVQPGGSLRLTCAASGFTFSSLTMSWHRQALGKERELVAAIGEATGATYYVESVKGRFIISRDNAKNTVFLQMNSLKPEDTAVYYCKAASSSNDYWGQGTQVTVSS
[2]
  binding result: binds

B2: G4 (VHH)
VHH: QLQLVESGGGLVQPGGSLRLTCAASGFALDDYTIGWFRQAPGNEREGVACMHGGGIHIADSLKGRITISRDNAKNTVYLQMNSLKPEDTAVYYCAARLATATRWTCKLSDMDYWGKGTLVTVSS
[2]
  binding result: binds

B3: G4-3 (VHH)
VHH: QVQLVESGGGLVQPGGSLRLSCAASGSTLDYYAIGWFRQAPGKEREGVSCISRSGGSTYYADSVKGRFTISRDNAKNTVYLQMNSLKPEDTAVYYCAADRGAVGGIFNSDYDAQNSLPPCSYGMDYWGKGTLVTVSS
[2]
  binding result: binds

B4: G10 (VHH)
VHH: QVQLVESGGGLVQPGGSLRLSCAASGGTLDVYTIGWFRQAPGKEREGLSCLSSSDGSTYYADSVKGRFTISRDNAKNTMYLQMNSLKPEDTAVYYCVAGAWTHVQAMCVTCFGCDWGQGTQVTVVS
[2]
  binding result: binds

B5: H7 (VHH)
VHH: QLQLVESGGGLVQPGGSLRLSCAASGGTIDYYTIGWFRQAPGKEREGVSCIISKADSTKYADTVEGRFTISSDKAKNTVYLQMNSLQPEDTGVYFCAAYRVLIAGRNPGCLLNPPAEYDYWGQGTQVTVSS
[2]
  binding result: binds

B6: F7 (VHH)
VHH: QVQLVESGGGLVMAGGSLSLSCAASGRLFSTWTMGWFRQAPGKEREFVGAIRRVGDSPSYADSVKGRFTISRDSTKNALYLKMNSLKPEDTAVYYCAAKRFGNEYEYWGQGTQVTVSS
[2]
  binding result: binds

B7: A12-2 (VHH)
VHH: QLQLVESGGGLVMAGGSLSLSCAASGRLFSTWTMGWFRQAPGKEREFVGAIRRVGDSPSYADSVKGRFTISRDSTKNALYLKMNSLKPEDTAVYYCAAKRFGNEYEYWGQGTQVTVSS
[2]
  binding result: binds

B8: G11 (VHH)
VHH: QLQLVESGGGLVMAGGSLSLSCAASGRTFSTWTMAWFRQAPGKEREFVGAIRRIGDSPSYADSVKGRFTISRDNAKNALYLKMNSLKPEDTAVYYCAAKRFGNEYEYWGQGTQVTVSS
[2]
  binding result: binds

B9: 1A-B1 (VHH)
chain: QLQLVESGGGLVQTGESLRLSCVASGIAFSRYIVGWYRQAPGKERELVASVRRNSGTNYVGDLKGGFFISSKNANNTVYQEMNNLKPADDAVYYCSTARPFLGDLPNNCGYWTQVTVSS
[2]
  binding result: binds

B10: hASIC1a comprising amino acids 12–478 with a Strep Tag II in the N-terminus (domain or fragment, human, UniProt P78348-2 12-478, looked up)
chain: GVQPVSIQAFASSSTLHGLAHIFSYERLSLKRALWALCFLGSLAVLLCVCTERVQYYFHYHHVTKLDEVAASQLTFPAVTLCNLNEFRFSQVSKNDLYHAGELLALLNNRYEIPDTQMADEKQLEILQDKANFRSFKPKPFNMREFYDRAGHDIRDMLLSCHFRGEVCSAEDFKVVFTRYGKCYTFNSGRDGRPRLKTMKGGTGNGLEIMLDIQQDEYLPVWGETDETSFEAGIKVQIHSQDEPPFIDQLGFGVAPGFQTFVACQEQRLIYLPPPWGTCKAVTMDSDLDFFDSYSITACRIDCETRYLVENCNCRMVHMPGDAPYCTPEQYKECADPALDFLVEKDQEYCVCEMPCNLTRYGKELSMVKIPSKASAKYLAKKFNKSEQYIGENILVLDIFFEVLNYETIEQKKAYEIAGLLGDIGGQMGLFIGASILTVLELFDYAYEVIKHKLCRRGKCQKEAKRS
notes: human acid-sensing ion channel 1a (ASIC1a), residues 12-478 (50 a.a. carboxyl terminal deletion); Trimer in the cryo-EM structure; also called human ASIC1a; recombinant hASIC1a protein; source: HEK293F (FreeStyle 293 F) cells, transfected (pcDNA3.1); crude membranes, solubilised in DDM, purified (Strep Tactin XT, SEC); not shown: Strep Tag II, N-terminal, kept
[3]
  stoichiometry N: 3

B11: B11 (VHH)
VHH: QLQLVESGGGLVQPGGSLRLSCAASGLTLDNYAIGWFRQVPGKEREDVSCISTSHGSLHYANSVKGRFTISVDAAENTVYLQMNSLNAEDTAVYFCAARGFDSDCSVYGMDFWGKGTPVTVSS
[2]
  binding result: binds

B12: 2B-D4 (VHH)
VHH: QVQLVESGGGLVQAGGSLRLSCAASGIAFSRYTMGWYRQAPGKQRELVADFSREGTTRYADAVKGRFTISRDNAKNTVYLEMNSLKPEDTAVYYCNARRPFLGNLANNWGRGTQVTVSS
[2]
  binding result: binds

B13: 2B-E6 (VHH)
VHH: QVQLVESGGGLVQPGGSLRLSCAASGRTVSSYVMGWYRQAPGKEREFVASVRWTTGLTYVEDSVKGRFTISRDNTKSTVDLQMNSLKPEDTAIYYCNARPLVMLGPTEAGYWGQGTQVTVSS
[2]
  binding result: binds

B14: Nb D10 (VHH)
VHH: QVQLVESGGGLVQPGGSLRLSCAASGFTFNRATMSWYRQAPGKERELVATIGSFGISTNYTDSVKGRFTISRDNAKNTLYLQMNSLKPEDTAVYYCNARYRSTYPWGQGTQVTVSS
notes: alpaca VHH selected against hASIC1a; source: E. coli WK6, periplasm
[4]
  binding result: binds

B15: Nb C4 (VHH)
VHH: QVQLVESGGGLVQPGGSLRLSCAASGFTFSRAAMSWYRQAPGKEREMVATIGSFGISTNYSDSVKGRFTISRDNAKNTVYLHMNSLKPEDTAVYYCNARYRSTYPWGQGTQVTVSS
notes: alpaca VHH selected against hASIC1a; The name is read out of the printed "C1-4-5"; also called C4 (printed within "C1-4-5"); source: E. coli WK6, periplasm
[4]
  binding result: binds

B16: Nb.C1 (VHH)
VHH: QVQLVESGGGLVQPRGSLRLSCAASGFTFSRAAMSWYRQAPGKEREMVSTIGSFGVSTNYSDSVKGRFTISRDNAKNTVYLHMNSLKPEDTAVYYCNARYRSSYPWGQGTQVTVSS
notes: alpaca VHH selected by phage display against hASIC1a; Expressed from the phagemid pADL-22c; also called Nb.1C; Nb.C1-HA; source: E. coli WK6, periplasm, purified (Ni-NTA); not shown: HA, C-terminal, kept
[5]
  binding result: no binding (tested: 1 nM)
[6]
  binding result: no binding (tested: 1 nM)
[7]
  binding result: no binding (tested: 1 nM)
[8]
  binding result: no binding (tested: 1 nM)
[9]
  Kd: ≤ 0.2 nM
[10]
  stoichiometry N: 1
[11]
  koff: ≤ 1.4e-05 s⁻¹
[12]
  kon: 68000 to 220000 M⁻¹ s⁻¹

B17: Nb H10 (VHH)
VHH: QVQLVESGGGLVQPGGSLRLTCAASGFTFSRATMSWYRQAPGKERELVATIGSFGVSTNYADSVKGRFTISRDNAKNTAYLYMNNLKPEDTAVYYCNAHYRSTYPWGQGTQVTVSS
notes: as for B14
[4]
  binding result: binds
